Reference: the Human Domainome abundance scans (Beltran et al. 2025)
± gives the uncertainty stated by the source.

B1: Zinc finger MYM-type protein 6, residues 427 to 504; numbered along this chain, O95789 (parent)
chain: KLKCQHCNHLFATKPELLFYKGKMFLFCGKNCSDEYKKKNKVVAMCDYCKLQKIIKETVRFSGVDKPFCSEVCKFLSA

Variants of: B1
Experiment: abundance fitness (aPCA) (normalised: wild type 0, dead -1); higher = more abundant; growth selection in yeast, the domain comes from the species named
Conditions: Homo sapiens

| Variant | abundance fitness |
| --- | --- |
| S33F | -0.289 ± 0.12 |
| S33Y | -0.14 ± 0.4 |
| S33C | -0.077 ± 0.05 |
| K56H | -0.113 ± 0.15 |
| K56S | -0.411 ± 0.15 |
| K56R | -0.423 ± 0.089 |
| K56E | -0.49 ± 0.15 |
| K56V | -0.071 ± 0.092 |
| Y20L | 0 ± 0.039 |
| L17N | 0.19 ± 0.38 |
| K74R | -0.298 ± 0.12 |
| V72N | 0.64 ± 0.15 |
| V64T | 0.037 ± 0.18 |
| V64D | 0.474 ± 0.25 |
| V64C | -0.432 ± 0.15 |
| K21A | 0.001 ± 0.028 |
| K21M | -0.031 ± 0.041 |
| K21H | -0.018 ± 0.049 |
| K21Q | -0.03 ± 0.036 |
| K37W | -0.099 ± 0.033 |
| K37A | 0.004 ± 0.028 |
| K37G | -0.027 ± 0.027 |
| S70C | -0.425 ± 0.2 |
| L10Y | -0.026 ± 0.053 |

| Variant | abundance fitness |
| --- | --- |
| M24Q | 0.101 ± 0.039 |
| K14T | -0.032 ± 0.051 |
| H6R | -0.03 ± 0.029 |
| H6I | -0.154 ± 0.065 |
| H6V | -0.074 ± 0.03 |
| F68T | -0.555 ± 0.35 |
| F68K | -0.476 ± 0.21 |
| F68M | 0.263 ± 0.14 |
| I54A | 0.557 ± 0.068 |
| K53S | -0.431 ± 0.15 |
| R60K | 0.041 ± 0.14 |
| R60W | -0.468 ± 0.17 |
| R60M | 0.46 ± 0.14 |
| M45G | -0.502 ± 0.085 |
| M45Y | 0.35 ± 0.14 |
| M45P | -0.328 ± 0.16 |
| C32P | -1.05 ± 0.14 |
| E71H | -0.09 ± 0.39 |
| T13S | -0.148 ± 0.052 |
| T13A | -0.074 ± 0.034 |
| T13W | -0.162 ± 0.039 |
| E16M | -0.14 ± 0.044 |
| E16V | -0.109 ± 0.034 |
| H9Q | 0.049 ± 0.041 |

| Variant | abundance fitness |
| --- | --- |
| H9A | 0.005 ± 0.032 |
| H9T | 0.042 ± 0.045 |
| G63F | -0.179 ± 0.47 |
| G63T | -0.226 ± 0.16 |
| G63A | -0.495 ± 0.16 |
| G63W | -0.486 ± 0.18 |
| G63R | -0.554 ± 0.13 |
| K50W | -0.709 ± 0.13 |
| K50D | -0.767 ± 0.37 |
| K50L | -0.722 ± 0.19 |
| V43M | 0.55 ± 0.12 |
| V43K | 0.542 ± 0.26 |
| D65N | -0.141 ± 0.34 |
| E57C | 0.163 ± 0.27 |
| I55W | -0.623 ± 0.17 |
| I55E | 0.197 ± 0.12 |
| G29R | -0.104 ± 0.029 |
| G29H | -0.333 ± 0.21 |
| K30H | -0.063 ± 0.05 |
| K30I | 0.021 ± 0.11 |
| Q52T | 0.181 ± 0.09 |
| S62A | 0.054 ± 0.079 |
| S62C | -0.072 ± 0.14 |
| S62M | 0.432 ± 0.17 |

| Variant | abundance fitness |
| --- | --- |
| F25C | -0.004 ± 0.051 |
| F19K | 0.182 ± 0.05 |
| F19P | 0.101 ± 0.037 |
| F19W | -0.005 ± 0.031 |
| L18W | -0.019 ± 0.031 |
| L51I | 0.022 ± 0.32 |
| L51D | 0.345 ± 0.32 |
| L51T | 0.551 ± 0.1 |
| L51S | 0.567 ± 0.089 |
| L51Q | 0.529 ± 0.12 |
| K38G | -0.026 ± 0.027 |
| K38V | -0.018 ± 0.032 |
| K38T | -0.014 ± 0.043 |
| T58W | -0.669 ± 0.28 |
| T58G | -0.125 ± 0.084 |
| A12N | -0.218 ± 0.076 |
| A12M | -0.105 ± 0.047 |
| A12I | 0.062 ± 0.19 |
| G22W | -0.226 ± 0.049 |
| G22A | -0.065 ± 0.033 |
| F75N | 0.487 ± 0.24 |
| F75T | 0.557 ± 0.096 |
| F75S | 0.48 ± 0.14 |
| L76H | 0.095 ± 0.32 |

| Variant | abundance fitness |
| --- | --- |
| L76Q | 0.603 ± 0.13 |
| L76T | -0.109 ± 0.28 |
| N8E | 0.018 ± 0.038 |
| N8F | -0.172 ± 0.07 |
| N8Q | 0.044 ± 0.04 |
| N8A | 0.013 ± 0.032 |
| N40Y | -0.24 ± 0.095 |
| N40K | -0.105 ± 0.059 |
| N40E | -0.071 ± 0.06 |
| N40V | -0.03 ± 0.051 |
| C69V | -1.03 ± 0.28 |
| C4M | -1.05 ± 0.4 |
| C4S | -0.702 ± 0.091 |
| D47I | -0.306 ± 0.46 |
| D47C | -0.16 ± 0.16 |
| K1E | -0.104 ± 0.046 |
| K1D | -0.008 ± 0.055 |
| K1F | -0.697 ± 0.34 |
| N31A | -0.078 ± 0.03 |
| L26N | 0.097 ± 0.058 |
| L26F | -0.148 ± 0.11 |
| L26A | 0.05 ± 0.028 |
| V59S | -0.314 ± 0.12 |
| C49T | -0.54 ± 0.32 |

| Variant | abundance fitness |
| --- | --- |
| C49K | -0.433 ± 0.32 |
| F61G | -0.002 ± 0.079 |
| A44M | 0.39 ± 0.28 |
| A44V | -0.319 ± 0.19 |
| D34R | -0.068 ± 0.032 |
| L2W | -0.119 ± 0.032 |
| L2R | 0.014 ± 0.028 |
| L2I | -0.06 ± 0.054 |
| L2A | 0.096 ± 0.03 |
| L2Q | 0.099 ± 0.059 |
| K3C | -0.163 ± 0.053 |
| K3E | 0.001 ± 0.036 |
| K3Y | -0.132 ± 0.056 |
| K3S | 0.021 ± 0.042 |
| Q5E | -0.33 ± 0.054 |
| P15K | -0.038 ± 0.039 |
| C73I | -0.753 ± 0.29 |
| C73A | -0.627 ± 0.12 |
| C73V | -0.728 ± 0.26 |
| C73G | -0.638 ± 0.12 |
| F27M | -0.066 ± 0.043 |
| F27K | -0.727 ± 0.17 |
| F27I | -0.365 ± 0.15 |
| P67S | 0.122 ± 0.12 |

| Variant | abundance fitness |
| --- | --- |
| P67E | -0.562 ± 0.23 |
| P67A | -0.51 ± 0.22 |
| K39E | -0.012 ± 0.057 |
| K39Y | 0.024 ± 0.25 |
| K39Q | -0.043 ± 0.047 |
| K39H | -0.078 ± 0.095 |
| K39M | -0.087 ± 0.06 |
| E35M | -0.054 ± 0.033 |
| C7K | -0.451 ± 0.095 |
| C7M | -0.76 ± 0.11 |
| C7W | -0.919 ± 0.074 |
| Y48K | -0.496 ± 0.22 |
| Y48S | -0.52 ± 0.13 |
| Y48T | -0.014 ± 0.34 |
| K66L | -0.889 ± 0.4 |
| K66G | 0.144 ± 0.11 |
| K23E | 0.062 ± 0.042 |
| K23D | -0.09 ± 0.064 |
| K23G | -0.067 ± 0.029 |
| K23Q | -0.097 ± 0.047 |
| F11T | 0.014 ± 0.039 |
| S77R | -0.394 ± 0.09 |
| S77C | -0.104 ± 0.22 |
